Results taken from PMC9684356.
Like-named read-outs stand apart in the source and are kept apart here.

Key:
HLTF HIRAN domain [1] = target: T1, HLTF HIRAN domain (UniProt Q14527 51-171); assay: fluorescence polarization
T1 sequence: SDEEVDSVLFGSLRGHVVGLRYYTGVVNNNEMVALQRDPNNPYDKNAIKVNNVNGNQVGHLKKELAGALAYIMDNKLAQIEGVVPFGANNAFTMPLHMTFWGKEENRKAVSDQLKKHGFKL

HLTF HIRAN domain [2] = target: T1, HLTF HIRAN domain; assay: competition
HLTF HIRAN domain [3] = target: T1, HLTF HIRAN domain; assay: fluorescence polarization; remark: listed apart in the source

Row | Binder | IC50 (HLTF HIRAN domain [2]) [µM] | further results
1 | TATAT (ssDNA) [5'-FAM-TATAT] |  | Kd (HLTF HIRAN domain [1]): 0.25 ± 0.1 µM
2 | TTTTT (ssDNA) [T5] | 2.4 ± 0.6 | 
3 | TTG (ssDNA) | 2.8 ± 0.5 | 
4 | GCC (ssDNA) | 31.8 ± 8.5 | 
5 | TTT (ssDNA) | 4.3 ± 0.9 | 
6 | TTTTT (ssDNA) [5'-FAM-T5] |  | Kd (HLTF HIRAN domain [3]): 0.14 ± 0.03 µM
7 | CTG (ssDNA) | 2.5 ± 0.2 | 
8 | AAAAA (ssDNA) [5'-FAM-A5] |  | Kd (HLTF HIRAN domain [1]): 0.16 ± 0.04 µM
9 | ATG (ssDNA) | 2.9 ± 0.4 | 
10 | CAG (ssDNA) | 31.7 ± 3.9 | 
11 | TTA (ssDNA) | 4.3 ± 0.4 | 
12 | TTTG (ssDNA) | 2 ± 0.2 | 
13 | TAT (ssDNA) | 34.9 ± 9.2 | 
14 | ATTG (ssDNA) | 1.8 ± 0.2 | 
15 | GGT (ssDNA) | 5.4 ± 0.2 | 
16 | CTT (ssDNA) | 10 ± 1.5 | 
17 | TTG (ssDNA) [5'-FAM-TTG] |  | Kd (HLTF HIRAN domain [1]): 0.03 ± 0.01 µM
18 | ATG (ssDNA) [5'-FAM-ATG] |  | Kd (HLTF HIRAN domain [1]): 0.09 ± 0.01 µM

Row | Binder | IC50 (HLTF HIRAN domain [2]) [µM] | further results
19 | GGG (ssDNA) | 20.2 ± 5.1 | 
20 | CTG (ssDNA) [5'-FAM-CTG] |  | Kd (HLTF HIRAN domain [1]): 0.06 ± 0.01 µM
21 | ATATA (ssDNA) [5'-FAM-ATATA] |  | Kd (HLTF HIRAN domain [1]): 0.17 ± 0.06 µM
22 | CTTG (ssDNA) | 1.6 ± 0.2 | 
23 | GTTG (ssDNA) | 1.7 ± 0.1 | 
24 | TGT (ssDNA) | 15.5 ± 0.9 | 
25 | TCC (ssDNA) | 17.1 ± 4.8 | 
26 | TTTG (ssDNA) [5'-FAM-TTTG] |  | Kd (HLTF HIRAN domain [1]): 0.1 ± 0.02 µM
27 | GTTG (ssDNA) [5'-FAM-GTTG] |  | Kd (HLTF HIRAN domain [1]): 0.22 ± 0.09 µM
28 | TCG (ssDNA) | 2.9 ± 0.3 | 
29 | TTC (ssDNA) | 13.5 ± 0.6 | 
30 | GTG (ssDNA) | 2.2 ± 0.07 | 
31 | CCG (ssDNA) | 3.6 ± 0.2 | 
32 | GTG (ssDNA) [5'-FAM-GTG] |  | Kd (HLTF HIRAN domain [1]): 0.18 ± 0.01 µM
33 | CCT (ssDNA) | 6.9 ± 0.07 | 
34 | TCT (ssDNA) | 6.8 ± 0.7 | 
35 | TCC (ssDNA) [5'-FAM-TCC] |  | Kd (HLTF HIRAN domain [1]): 0.21 ± 0.07 µM
